The values that follow come from patent publication US20170247475A1 (Boehringer Ingelheim, published 2017).

In test [1] the target is T1, hAng2.
T1 construct: also called human Ang2
T1 chain: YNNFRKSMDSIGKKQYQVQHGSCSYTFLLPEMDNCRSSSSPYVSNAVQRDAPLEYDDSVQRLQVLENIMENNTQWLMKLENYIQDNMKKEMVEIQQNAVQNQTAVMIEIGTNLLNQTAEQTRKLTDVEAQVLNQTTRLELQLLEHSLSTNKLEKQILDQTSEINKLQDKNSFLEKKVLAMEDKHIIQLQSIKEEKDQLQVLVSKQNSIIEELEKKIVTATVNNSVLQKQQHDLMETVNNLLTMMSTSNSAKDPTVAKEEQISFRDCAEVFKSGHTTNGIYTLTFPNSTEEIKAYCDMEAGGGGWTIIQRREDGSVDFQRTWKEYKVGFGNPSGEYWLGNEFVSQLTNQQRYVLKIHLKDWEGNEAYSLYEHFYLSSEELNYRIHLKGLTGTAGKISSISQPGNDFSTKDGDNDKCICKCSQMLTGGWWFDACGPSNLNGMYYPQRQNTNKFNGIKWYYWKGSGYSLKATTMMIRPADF
As to the kind of experiment: competition ELISA, blocking of hAng2 binding to hTie2. In general terms: An ELISA detects its analyte on a solid surface through an enzyme-linked reagent.

Test [2] concerns the target T2, mAng2.
T2 construct: also called mouse Ang2
T2 chain: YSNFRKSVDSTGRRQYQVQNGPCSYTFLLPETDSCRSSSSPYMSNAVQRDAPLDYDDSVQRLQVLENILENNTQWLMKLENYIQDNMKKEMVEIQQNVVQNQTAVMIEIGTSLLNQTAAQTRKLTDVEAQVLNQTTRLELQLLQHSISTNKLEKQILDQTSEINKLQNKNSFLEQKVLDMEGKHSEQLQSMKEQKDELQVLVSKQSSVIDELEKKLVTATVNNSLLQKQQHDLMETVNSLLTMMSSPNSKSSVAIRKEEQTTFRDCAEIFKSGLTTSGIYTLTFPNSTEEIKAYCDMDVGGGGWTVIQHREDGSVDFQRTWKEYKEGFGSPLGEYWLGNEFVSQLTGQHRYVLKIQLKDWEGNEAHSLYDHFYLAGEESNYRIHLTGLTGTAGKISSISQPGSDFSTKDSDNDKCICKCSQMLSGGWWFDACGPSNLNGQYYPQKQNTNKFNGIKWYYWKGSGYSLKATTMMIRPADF
As to the kind of experiment: competition ELISA, blocking of mAng2 binding to mTie2.

Test [3] has as its target T3, cAng2 (cynomolgus monkey).
T3 construct: also called cyno Ang2
Kind of test: competition ELISA, blocking of cAng2 binding to cTie2.

In test [4] the target is VEGF. Kind of test: cell-based or functional assay.
Test [5] addresses VEGF. As to the kind of experiment: cell-based or functional assay. This is another data set of the same source.
In test [6] the target is T4, recombinant human VEGF121 (human, UniProt P15692-9 27-147).
T4 construct: also called rhVEGF121; hVEGF121
T4 sequence (looked up): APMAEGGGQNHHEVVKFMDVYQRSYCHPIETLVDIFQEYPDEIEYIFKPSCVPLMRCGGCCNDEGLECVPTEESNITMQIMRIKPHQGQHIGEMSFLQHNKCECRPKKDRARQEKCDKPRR
Kind of test: binding ELISA, coated rhVEGF121. The procedure:
Binding to recombinant human VEGF121 is assessed via a solid phase binding ELISA. Briefly, recombinant human VEGF121 (R&D Systems, Minneapolis, Minn., USA) is coated overnight at 4° C. at 1 μg/mL in a 96-well MaxiSorp plate (Nunc, Wiesbaden, Germany). Wells are blocked with a casein solution (1% in PBS).

The target of test [7] is T5, recombinant human VEGF165 (human, UniProt P15692-4 27-191).
T5 construct: also called hVEGF165; rhVEGF165
Kind of test: binding ELISA, coated rhVEGF165.
Target sequence in this assay (P15692 other isoform, or with tags, fused parts or gaps limits assumed): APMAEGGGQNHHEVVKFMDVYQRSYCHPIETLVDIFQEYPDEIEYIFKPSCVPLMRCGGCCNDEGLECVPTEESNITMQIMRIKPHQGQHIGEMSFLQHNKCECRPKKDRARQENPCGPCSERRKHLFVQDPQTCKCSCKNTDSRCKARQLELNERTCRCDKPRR

In another test the target is T6, human VEGF-C (human, UniProt P49767 103-227).
T6 construct: also called hVEGF-C
T6 sequence (looked up): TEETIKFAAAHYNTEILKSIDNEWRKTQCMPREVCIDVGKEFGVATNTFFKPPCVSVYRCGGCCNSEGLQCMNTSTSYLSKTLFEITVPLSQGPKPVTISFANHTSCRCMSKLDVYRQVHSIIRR
As to the kind of experiment: binding ELISA on coated VEGFC.

Test [8] deals with T5, recombinant human VEGF165. As to the kind of experiment: VEGF165/hVEGFR1-Fc competition ELISA.
Target sequence in this assay (P15692 other isoform, or with tags, fused parts or gaps limits assumed): as the sequence (P15692 other isoform, or with tags, fused parts or gaps limits assumed) above
In a further test the target is T7, human PIGF (human, UniProt P49763-2 21-149, limits assumed).
T7 construct: also called hPIGF; PLGF
T7 sequence (looked up): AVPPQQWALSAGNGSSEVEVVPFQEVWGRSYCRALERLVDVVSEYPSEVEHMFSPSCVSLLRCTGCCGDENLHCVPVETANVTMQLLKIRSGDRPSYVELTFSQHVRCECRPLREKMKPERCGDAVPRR
Kind of test: binding ELISA on coated PIGF. The procedure:
(§1) Binding to VEGFB, VEGFC, VEGFD and PIGF is assessed via a solid phase binding ELISA. In brief, VEGFB, VEGFC, VEGFD and PIGF (R&D Systems, Minneapolis, Minn., USA) are coated overnight at 4° C. at 1 μg/mL in a 96-well MaxiSorp plate (Nunc, Wiesbaden, Germany). Wells are blocked with a casein solution (1% in PBS). […] As positive controls serial dilutions of the appropriate receptors are taken along and detected with horseradish peroxidase (HRP)-conjugated goat anti-human IgG, Fc specific antibody (Jackson Immuno Research Laboratories Inc., West Grove, Pa., USA) and a subsequent enzymatic reaction in the presence of the substrate TMB (3,3′,5,5′-tetramentylbenzidine) (Pierce, Rockford, Ill., USA).

For test [9], the target named is T5, recombinant human VEGF165. As to the kind of experiment: hVEGF165/hVEGFR2-Fc competition ELISA.
The target of another test is T8, human VEGF-B (human, UniProt P49765-2 22-188, limits assumed).
T8 construct: also called hVEGF-B
T8 sequence (looked up): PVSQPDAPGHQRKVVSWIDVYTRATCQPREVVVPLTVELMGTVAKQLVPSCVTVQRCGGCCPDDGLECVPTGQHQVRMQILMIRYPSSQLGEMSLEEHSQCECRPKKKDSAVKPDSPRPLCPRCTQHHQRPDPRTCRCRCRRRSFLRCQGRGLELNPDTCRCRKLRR
Kind of test: binding ELISA on coated VEGFB. How it is done: as §1

A further test concerns the target T9, human VEGF-D (human, UniProt O43915 93-201).
T9 construct: also called hVEGF-D
T9 sequence (looked up): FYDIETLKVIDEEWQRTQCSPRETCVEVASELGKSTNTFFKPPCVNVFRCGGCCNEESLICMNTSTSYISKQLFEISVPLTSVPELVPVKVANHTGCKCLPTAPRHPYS
As to the kind of experiment: binding ELISA on coated VEGF-D. The procedure: as §1

For test [10], the target named is T5, recombinant human VEGF165. Kind of test: VEGF165/hVEGFR1-Fc competition AlphaScreen. How it is done:
(§2) Finally, streptavidin donor beads (20 μg/ml) are added and after 1 hour of incubation in the dark, fluorescence is measured on the Envision microplate reader.
Target sequence in this assay (P15692 other isoform, or with tags, fused parts or gaps limits assumed): as the sequence (P15692 other isoform, or with tags, fused parts or gaps limits assumed) above
In general terms: In Alpha technology, singlet oxygen from a donor bead excites a nearby acceptor bead.

In test [11] the target is T5, recombinant human VEGF165. Kind of test: hVEGF165/hVEGFR2-Fc competition AlphaScreen. How it is done: as §2
The target in test [12] is T10, recombinant mouse VEGF164 (mouse, UniProt Q00731-2 27-190).
T10 construct: biotinylated in the mVEGFR2 AlphaScreen; also called rmVEGF164; mVEGF164
T10 sequence (looked up): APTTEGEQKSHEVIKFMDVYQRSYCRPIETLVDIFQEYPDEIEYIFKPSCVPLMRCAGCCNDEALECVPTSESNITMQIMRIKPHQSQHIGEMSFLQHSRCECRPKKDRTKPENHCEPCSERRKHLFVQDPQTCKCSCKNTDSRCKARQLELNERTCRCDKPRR
Kind of test: binding ELISA on coated mouse VEGF164. How it is done:
Cross-reactivity to mouse VEGF164 is determined using a binding ELISA. […] Wells are blocked with a casein solution (1% in PBS). […] A mouse VEGF164 reactive mAb is included as positive control.

In test [13] the target is T5, recombinant human VEGF165. As to the kind of experiment: SPR Biacore T100, hVEGF165 on chip, Two State Reaction model. The procedure:
(§3) Samples are injected for 2 min and allowed to dissociate up to 20 min at a flow rate of 45 μI/min. In between sample injections, the chip surface is regenerated with 100 mM HCl. HBS-EP+(Hepes buffer pH7.4+EDTA) is used as running buffer. Binding curves are fitted using a Two State Reaction model by Biacore T100 Evaluation Software v2.0.1.
(§4) ^{(a)}KD = kd1/kₐ₁ * (kd2/(kd2 + kₐ₂)) ^{(b)}Curves are fitted using a Two State Reaction model by Biacore T100 Evaluation Software v2.0.1
Target sequence in this assay (P15692 other isoform, or with tags, fused parts or gaps limits assumed): as the sequence (P15692 other isoform, or with tags, fused parts or gaps limits assumed) above
In general terms: SPR reads the build-up and loss of mass on a sensor chip optically.

Test [14] addresses T5, recombinant human VEGF165. As to the kind of experiment: ka1; SPR Biacore T100, hVEGF165 on chip, Two State Reaction model. The procedure: as §3, §4
Target sequence in this assay (P15692 other isoform, or with tags, fused parts or gaps limits assumed): as the sequence (P15692 other isoform, or with tags, fused parts or gaps limits assumed) above
The target of test [15] is T5, recombinant human VEGF165. As to the kind of experiment: kd1; SPR Biacore T100, hVEGF165 on chip, Two State Reaction model. How it is done:
as §3, §4
Target sequence in this assay (P15692 other isoform, or with tags, fused parts or gaps limits assumed): as the sequence (P15692 other isoform, or with tags, fused parts or gaps limits assumed) above

In test [16] the target is T5, recombinant human VEGF165. Kind of test: SPR Biacore T100, Two State Reaction model; KD = kd1/ka1 * (kd2/(kd2 + ka2)). How it is done:
as §3, §4

Test [17] concerns the target T1, hAng2. Kind of test: competition ELISA, blocking of hAng2 binding to hTie2.
The target in test [18] is T2, mAng2. As to the kind of experiment: competition ELISA, blocking of mAng2 binding to mTie2.
Test [19] deals with T3, cAng2. As to the kind of experiment: competition ELISA, blocking of cAng2 binding to cTie2. This is another data set of the same source.

Where two headings read alike, the source gives them in different places.

B1: ANGBII00003 (VHH)
bivalent VHH: EVQLVESGGGLVQVGDSLRLSCAASGRTFSTYLMVGWFRQAPGKEREFAAGIWSSGDTAYADSVRGRFTISRDNAKNTVYLQMNSLKTEDTAVYYCAGSYDGNYYIPGFYKDWGQGTLVTVSSGGGGSGGGSEVQLVESGGGLVQVGDSLRLSCAASGRTFSTYLMVGWFRQAPGKEREFAAGIWSSGDTAYADSVRGRFTISRDNAKNTVYLQMNSLKTEDTAVYYCAGSYDGNYYIPGFYKDWGQGTLVTVSS
notes: homodimeric anti-Ang2 VHH; also called 11B07-9gs-11B07
On to B1, for which the “IC50 (read off the curve)” value was around 0.03 nM with hAng2 [1], around 0.04 nM with mAng2 [2] and around 0.03 nM with cAng2 [3].

B2: VEGFBII010 (VHH)
chain: EVQLVESGGGLVQTGDSLRLSCEVSGRTFSSYSMGWFRQAQGKEREFVVAISKGGYKYDSVSLEGRFTISKDNAKNTVYLQINSLKPEDTAVYYCASSRAYGSSRLRLADTYEYWGQGTQVTVSSGGGGSGGGGSGGGGSGGGGSGGGGSGGGGSGGGGSEVQLVESGGGLVQTGDSLRLSCEVSGRTFSSYSMGWFRQAQGKEREFVVAISKGGYKYDSVSLEGRFTISKDNAKNTVYLQINSLKPEDTAVYYCASSRAYGSSRLRLADTYEYWGQGTQVTVSS
notes: bivalent VHH in one chain; also called VEGFBII23B04-35GS-23B04; homodimeric VEGFBII23B04
As for B2, in the test with VEGF [4], the “% inhibition, VEGF HUVEC proliferation assay” value was 95%. Moreover, the “IC50 (nM), VEGF HUVEC proliferation assay” value with VEGF [4] worked out at 0.22 nM. The “% inhibition, VEGF HUVEC Erk phosphorylation assay” value in the test with VEGF [5] came out at 92%. Moreover, the “IC50 (nM), VEGF HUVEC Erk phosphorylation assay” value with VEGF [5] came out at 0.19 nM. Further, the EC50 (in general, the concentration needed to bring the measured effect to its halfway point) stood at 0.92 nM in test [6] and 0.428 nM in test [7]. For the same molecule, the binding result is reported as “no binding (tested: 5e-7 M)” in the test with human VEGF-C; “no binding (tested: 5e-7 M)” with human PIGF; “no binding (tested: 5e-7 M)” with human VEGF-B; “no binding (tested: 5e-7 M)” in the test with human VEGF-D; “binds” in test [12]. Besides, the % inhibition (in general, the percentage by which the read-out fell short of the control) in [8] came out at 67%; in [9], 100%; in test [10], 70%; in [11] it was 100%. The IC50 (in general, the point on the concentration scale where inhibition reaches its midpoint) was 0.0735 nM in test [8], 0.049 nM in test [9], 0.021 nM in test [10] and 0.016 nM in test [11]. Besides, in [13], the ka2 came out at 0.029 s⁻¹. Moreover, the kd2 in test [13] stood at 0.00013 s⁻¹. In [14], the kon – broadly, the second-order rate constant of association – was found to be 450000 M⁻¹ s⁻¹. The koff (commonly the rate constant with which the complex falls apart) in test [15] was determined as 0.017 s⁻¹. Moreover, the Kd (in general, the concentration at which binding is half-saturated) in [16] amounted to 0.16 nM.

B3: ANGBII00004 (VHH)
bivalent VHH: EVQLVESGGGLVQAGGSLRLSCAASGFTLDDYAIGWFRQAPGKEREGVSSIRDNDGSTYYADSVKGRFTISSDNDKNTVYLQMNSLKPEDTAVYYCAAVPAGRLRFGEQWYPLYEYDAWGQGTLVTVSSGGGGSGGGSEVQLVESGGGLVQAGGSLRLSCAASGFTLDDYAIGWFRQAPGKEREGVSSIRDNDGSTYYADSVKGRFTISSDNDKNTVYLQMNSLKPEDTAVYYCAAVPAGRLRFGEQWYPLYEYDAWGQGTLVTVSS
notes: homodimeric anti-Ang2 VHH; also called 00027-9gs-00027
As for B3, the figures for the “IC50 (read off the curve)” value in the test with hAng2 [17], with mAng2 [18] and in the test with cAng2 [19] were around 0.01 nM, around 0.03 nM and around 0.04 nM, respectively.
